According to PMC8240473 (DNA repair, 2020):
“And” between values parts separate entries of the source, which are not always exact repeats. Equal values may be shown once. Read-outs that look alike come from different tables or passages of the source. Values belong to the molecule of their own block, whether it stands above or below them. No end group written: not given here. *: point of attachment. Biotin = O=C1N[C@H]2[C@H](CS[C@H]2CCCCC(=O)*)N1; Ahx = NCCCCCC(=O)O

B1: PCNA, purified (natural protein, yeast, UniProt P15873 1-258, looked up)
chain: MLEAKFEEASLFKRIIDGFKDCVQLVNFQCKEDGIIAQAVDDSRVLLVSLEIGVEAFQEYRCDHPVTLGMDLTSLSKILRCGNNTDTLTLIADNTPDSIILLFEDTKKDRIAEYSLKLMDIDADFLKIEELQYDSTLSLPSSEFSKIVRDLSQLSDSINIMITKETIKFVADGDIGSGSVIIKPFVDMEHPETSIKLEMDQPVDLTFGAKYLLDIIKGSSLSDRVGIRLSSEAPALFQFDLKSGFLQFFLAPKFNDEE
B2: N-terminally biotinylated peptide containing PIP1 of pol η (peptide)
chain: {Biotin-Ahx}-QKKQVTSSKNILSFFTRKK
B3: Rad6-Rad18 complex, purified (complex, yeast)
chain 1: MDHQITTASDFTTTSIPSLYQLDTLLRCHICKDFLKVPVLTPCGHTFCSLCIRTHLNNQPNCPLCLFEFRESLLRSEFLVSEIIQSYTSLRSSLLDALRIPKPTPVPENEEVPGPENSSWIELISESESDSVNAADDDLQIVATSERKLAKRSMTDILPLSSKPSKRNFAMFRSERIKKKSKPNEQMAQCPICQQFYPLKALEKTHLDECLTLQSLGKKPKISTTFPTESNPHNKSSSRFKVRTPEVDKSSCGETSHVDKYLNSMMSAEHQRLPKINFTSMTQSQIKQKLSSLGLSTNGTRQNMIKRYNHYEMLWNSNFCDSLEPVDEAELKRQLLSWDVSHNKTPQNSSNKGGISKLMIMKSNGKSSSYRKLLENFKNDKFNRKGWMVMFRKDFARLIREAKMKIKTGSSDSSGSVGHSNDGDGVEKVQSDQGTEDQQMEKDQDTVINEDRVAGERNLPNEDSTDADLSRELMDLNEYSKDPPGNN
chain 2: MSTPARRRLMRDFKRMKEDAPPGVSASPLPDNVMVWNAMIIGPADTPYEDGTFRLLLEFDEEYPNKPPHVKFLSEMFHPNVYANGEICLDILQNRWTPTYDVASILTSIQSLFNDPNPASPANVEAATLFKDHKSQYVKRVKETVEKSWEDDMDDMDDDDDDDDDDDDDEAD
B4: Rad6, purified (enzyme, yeast, UniProt P06104 1-172, looked up)
chain: B3 chain 2

Legend:
Assay in all cases: BLI
[1] = molecular target: N-terminally biotinylated peptide containing the R6BD of Rad18 (yeast)
[2] = molecular target: N-terminally biotinylated peptide containing the R6BD of Rad18 (yeast); remark: listed apart in the source
Rad6, purified = molecular target: B4
[3] = molecular target: B2
PCNA, purified = molecular target: B1
[4] = molecular target: B3

Kd [1]: 2.8 µM
Kd [2]: 2.5 µM
Molecule: Rad6, purified (from UniProt P06104 1-172) (enzyme)

Kd (Rad6, purified): 0.6 µM
Molecule: NKRLKKQGTLESFFKRKAK (not fully specified) [PIP-like motif of Pol32 (peptide)]

Molecule: B1
dwell time [3]: 190 s

Kd (PCNA, purified): 12 µM and 13 µM
koff (PCNA, purified): 0.3 s⁻¹
Kd [4]: 3.7 ± 0.5 µM
koff [4]: 0.13 s⁻¹
koff (Rad6, purified): 0.6 s⁻¹
Molecule: {Biotin-Ahx}-ESSKNLSFGEKRLLFSRKRP [N-terminally biotinylated peptide containing PIP2 of pol η]

Molecule: B2
Kd (PCNA, purified): 0.0072 ± 0.0024 µM
koff (PCNA, purified): 0.0054 s⁻¹
Kd [4]: 1.2 ± 0.1 µM
koff [4]: 0.0008 s⁻¹
Kd (Rad6, purified): 2.3 ± 0.4 µM
koff (Rad6, purified): 0.02 s⁻¹

Molecule: B3
dwell time [3]: 1300 s

Molecule: B4
dwell time [3]: 50 s
